In the series the test system is T1, NC(=O)NC(C(=O)O)c1ccc(O)cc1.
T1 construct: pET-28a(+)-Case, N- and C-terminal His6 tags, expressed in E. coli BL21(DE3), Ni-NTA purified, about 37 kDa
Nature of the series: HPLC of D-HPG formed, double reciprocal plot. The format is biochemical, Agrobacterium sp. KNK712. The note with it: 50 mM Tris-HCl pH 7.5, 65 °C, 0.1-10.0 mM CpHPG. From the text:
HPLC of D-HPG formed, double reciprocal plot on DCase (N-carbamoyl-D-amino acid amidohydrolase, EC 3.5.1.77; N-carbamoyl hydrolase)

As to “DCase (N-carbamoyl-D-amino acid amidohydrolase, EC 3.5.1.77; N-carbamoyl hydrolase) (Agrobacterium sp. KNK712; A302C/Q4C)”, the Km came to 2560 ± 150 µM, the turnover number (kcat) worked out at 29.2 ± 0.733 s⁻¹ and the kcat/Km was 11400 ± 516 M⁻¹ s⁻¹.

As for “DCase (N-carbamoyl-D-amino acid amidohydrolase, EC 3.5.1.77; N-carbamoyl hydrolase) (Agrobacterium sp. KNK712; A302C/Q4C/T212A)”, the Michaelis constant (Km) stood at 2380 ± 620 µM, the catalytic constant (kcat) amounted to 30.4 ± 0.703 s⁻¹ and the specificity constant (kcat/Km) was 12800 ± 572 M⁻¹ s⁻¹.

Turning to “DCase (N-carbamoyl-D-amino acid amidohydrolase, EC 3.5.1.77; N-carbamoyl hydrolase) (Agrobacterium sp. KNK712; A302C/Q4C/T212G)”, the Michaelis-Menten constant (Km) amounted to 2340 ± 260 µM, the catalytic constant (kcat) was 36.7 ± 0.658 s⁻¹ and the catalytic efficiency (kcat/Km) was found to be 15700 ± 939 M⁻¹ s⁻¹.

On to “DCase (N-carbamoyl-D-amino acid amidohydrolase, EC 3.5.1.77; N-carbamoyl hydrolase) (Agrobacterium sp. KNK712; A302C/Q4C/T212S)”, for which the Km stood at 2120 ± 260 µM, the turnover number (kcat) came out at 38.1 ± 0.658 s⁻¹ and the specificity constant (kcat/Km) worked out at 18000 ± 722 M⁻¹ s⁻¹.

Regarding “DCase (N-carbamoyl-D-amino acid amidohydrolase, EC 3.5.1.77; N-carbamoyl hydrolase) (Agrobacterium sp. KNK712; A302C/Q4C/T212V)”, the Km came to 2190 ± 260 µM, the kcat was 32.9 ± 0.658 s⁻¹ and the kcat/Km worked out at 15000 ± 1200 M⁻¹ s⁻¹.

For “DCase (N-carbamoyl-D-amino acid amidohydrolase, EC 3.5.1.77; N-carbamoyl hydrolase) (Agrobacterium sp. KNK712; Q4C)”, the Km turned out to be 2440 ± 460 µM, the kcat amounted to 12.6 ± 0.371 s⁻¹ and the kcat/Km was 5150 ± 265 M⁻¹ s⁻¹.

By Km is commonly meant the substrate concentration at which the rate is half of its maximum. What is called kcat is the maximal rate divided by the concentration of active sites. One may read the kcat/Km as the turnover number divided by the Michaelis constant.

For the origin of these results see publication PMC11151596, “Improving the enzymatic activity and stability of N-carbamoyl hydrolase using deep learning approach” (Microbial Cell Factories, 2024).
